Key:
[1] = target: T1, OprF protein of Pseudomonas aeruginosa on bacteria of the CHA strain (Pseudomonas aeruginosa, UniProt P13794 25-350); assay: cell-based or functional assay
T1 sequence (looked up): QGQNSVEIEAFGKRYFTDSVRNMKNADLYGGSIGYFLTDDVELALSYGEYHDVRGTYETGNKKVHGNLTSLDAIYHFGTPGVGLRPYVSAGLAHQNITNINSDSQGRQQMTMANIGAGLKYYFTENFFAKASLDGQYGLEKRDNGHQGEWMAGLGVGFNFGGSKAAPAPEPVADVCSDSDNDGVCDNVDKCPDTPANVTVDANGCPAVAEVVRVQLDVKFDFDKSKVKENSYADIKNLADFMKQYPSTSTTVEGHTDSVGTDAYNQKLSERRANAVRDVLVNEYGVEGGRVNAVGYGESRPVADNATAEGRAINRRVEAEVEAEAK

[2] = target: T2, OprF protein of Pseudomonas aeruginosa with N-terminal polyhistidine tag, in proteoliposomes (Pseudomonas aeruginosa, UniProt P13794 25-350, limits assumed); assay: ELISA on coated OprF proteoliposomes, anti-c-myc-peroxidase detection, one site-specific binding fit
T2 construct: Made by cell-free synthesis (E. coli lysate) in the presence of liposomes; inserted in the liposomal membrane, found oligomerized, in open and closed channel conformations; Genbank AFM37279.1 is printed for OprF in general; The sense primer starts at the ATG of the gene, so the signal peptide may be part of the construct; also called porin OprF; OprF membrane antigen; not shown: N-terminal …
T2 sequence (looked up): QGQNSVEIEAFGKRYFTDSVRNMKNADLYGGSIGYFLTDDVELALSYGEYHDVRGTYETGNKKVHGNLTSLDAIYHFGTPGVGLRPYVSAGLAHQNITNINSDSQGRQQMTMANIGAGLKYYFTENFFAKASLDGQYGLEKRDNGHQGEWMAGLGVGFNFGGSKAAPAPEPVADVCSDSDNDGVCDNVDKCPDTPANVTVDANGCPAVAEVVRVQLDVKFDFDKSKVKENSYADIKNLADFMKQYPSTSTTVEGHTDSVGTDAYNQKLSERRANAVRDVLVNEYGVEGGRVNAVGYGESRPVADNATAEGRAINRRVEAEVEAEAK
Description: By way of example, the dissociation constant Kd is determined for the scFv fragments E7, F8, F10 and G9, with an ELISA method.
For this purpose, 100 μl of OprF proteoliposomes (containing an OprF concentration of 1 μg/ml) contained in fixation buffer (0.1 M sodium carbonate, 0.1 M sodium bicarbonate) are fixed at the bottom of the wells of a 96-well plate (Thermo Scientific®) overnight at 4° C. and under stirring. The wells are then blocked for 1 h at 21° C. with 100 μl of TBS Tween (TBST) buffer containing 5% milk. After washing the wells with 100 μl of TBST buffer, 100 μl of scFv fragment (E7, F8, F10 or G9), at 1:50; 1:200; 1:400; 1:800; 1:1600 and 1:3200 dilutions in TBST buffer, are added to the corresponding wells and incubated for 1 h at 37° C. under stirring. After washing the wells, 100 μl of anti-c-myc-Peroxidase antibody (Roche) (1:10000 dilution in TBST buffer containing 5% milk) is added to the wells and incubated for 1 h at 37° C. under stirring. After washing the wells 3 times, 50 μl of TMB is added to the wells and the plate is incubated at ambient temperature and protected from light for approximately 15 min. 50 μl of 1 M HCl is then added and the absorbance of each well is measured at 450 nm. These absorbance data are then analyzed using the GraphPad Prism software (non-linear regression analysis, “one site-specific binding” equation) in order to calculate the dissociation constant Kd of each scFv fragment tested. By way of comparison, a measurement is also made on the buffer only.

Binder	cytotoxicity of P. aeruginosa towards macrophages (LDH release, A490-A680 nm) [1]	Kd [2] [nM]
scFv fragment E7 (scFv, Macaque scFv, format VH-(G4S)3-VL-6xHis-c-myc) scFv: QVQLEQSGAEVKQPGASVKVSCKASGYSFSSYGMNWVRQAPGQRPEWMGWINADTGKSTYAPGFKERFTFSLDTSVSTAYLTISSLKAEDTAVYYCVRSCRGGVCQLYHWGQGVLITVSSGGGGSGGGGSGGGGSDIELTQSPTSIAVSQGERVTISCTASSSVTTGYFHWYQQKPGFPPRLLVYGTSSLPSGVPARFSGSGSGTSYTLTISNMEAEDAAHYYCQQGHTIPLTFGGGTKVEIKHHHHHHEQKLISEEDL	~0.67 fraction of cytotoxicity reduced	213
scFv fragment F8 (scFv, Macaque scFv, format VH-(G4S)3-VL-6xHis-c-myc) scFv: QVQLEQSGAEVKQPGASVKVSCKASGYSFSSYGMNWVRQAPGQRPEWLGWINADTGKSTYAPGFKERFTFSLDTSVSTAYLTISSLKAEDTAVYYCVRSCRGGVCQLYHWGQGVLITVSSGGGGSGGGGSGGGGSEIELTQSPTSIAVSRGERVTVSCMASSSVRTGYLHWYQQKPGFPPRLLVYGTSSLPSGVPARFSGSGSGTSYTLTISSVEPEDVAHYYCQQGHTIPLTFGGGTKVEIKHHHHHHEQKLISEEDL	~0.67 fraction of cytotoxicity reduced	211
scFv fragment F10 (scFv, Macaque scFv, format VH-(G4S)3-VL-6xHis-c-myc) scFv: QVQLEQSGAEVKQPGASVKVSCKASGYSFNTYGMNWVRQAPGQRPEWMGWINADTGKSTYAPGFKERFTFSLDTSVSTAYLTISSLKAEDTAVYFCVRSCRGGVCQLYHWGQGVLVTVSSGGGGSGGGGSGGGGSDIELTQSPTSMAVSQGERVTISCTASSSVSTNYLHWYQQKPGFPPRLLVYRTSSLAPGVPARFSGSGSGTSYTLTISNMEAEDAAHYYCQQGNTIPLTFGGGTKVEIKHHHHHHEQKLISEEDL		1490
scFv fragment G9 (scFv, Macaque scFv, format VH-(G4S)3-VL-6xHis-c-myc) scFv: QVQLEQSGAEVKHPGASVKVSCKASGYSFSTYGMNWVRQAPGQRPEWMGWINADTGKSTYAPGFKERFTFSLDTSVSTAYLTISSLKAEDTAVYYCVRSCRGGVCQLYHWGQGVLITVSSGGGGSGGGGSGGGGSELQMTQSPTSMAVSQGERVTISCTASSSVNTNYLHWYQQKPGFPPRLLVYGTSSLVAGVPARFSGSGSGTSYTLTISNMEAEDAANYYCQQGNTIPLTFGGGTKVEIKHHHHHHEQKLISEEDL	~0.67 fraction of cytotoxicity reduced	295
